Test results published in US11141452 (dated 2021).
Non-standard residues stand in square brackets, D forms with d. Primed or numbered codes have the meaning given here. No end group written: not given here. *: point of attachment. NH(3,5-(CF3)2-benzyl) = FC(F)(F)c1cc(CN*)cc(C(F)(F)F)c1; NMePhe(4-F) = CN[C@@H](Cc1ccc(F)cc1)C(=O)O; Phe(4-F) = N[C@@H](Cc1ccc(F)cc1)C(=O)O; NMeF = CN[C@@H](Cc1ccccc1)C(=O)O; 4‑Ampa = not defined here; 4‑Apac = not defined here; 4Abz = Nc1ccc(C(=O)O)cc1; 4Amb′ = not defined here; NHBn = c1ccc(CN*)cc1; Ahx = NCCCCCC(=O)O; GABA = NCCCC(=O)O; βAla = NCCC(=O)O

T1: human NK1 receptor (human, UniProt P25103)
T1 chain: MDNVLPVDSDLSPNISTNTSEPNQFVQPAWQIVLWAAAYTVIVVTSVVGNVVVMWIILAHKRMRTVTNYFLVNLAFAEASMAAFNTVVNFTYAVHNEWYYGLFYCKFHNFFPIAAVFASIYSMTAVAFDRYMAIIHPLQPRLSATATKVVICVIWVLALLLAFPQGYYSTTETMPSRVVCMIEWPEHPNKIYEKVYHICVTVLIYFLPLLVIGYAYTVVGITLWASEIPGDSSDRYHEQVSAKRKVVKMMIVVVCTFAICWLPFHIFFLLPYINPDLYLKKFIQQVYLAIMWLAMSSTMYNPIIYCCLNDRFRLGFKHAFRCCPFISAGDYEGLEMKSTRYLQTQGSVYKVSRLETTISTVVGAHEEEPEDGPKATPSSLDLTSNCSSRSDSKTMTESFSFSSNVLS

T2: rat NK1 receptor (rat, UniProt P14600)
T2 chain: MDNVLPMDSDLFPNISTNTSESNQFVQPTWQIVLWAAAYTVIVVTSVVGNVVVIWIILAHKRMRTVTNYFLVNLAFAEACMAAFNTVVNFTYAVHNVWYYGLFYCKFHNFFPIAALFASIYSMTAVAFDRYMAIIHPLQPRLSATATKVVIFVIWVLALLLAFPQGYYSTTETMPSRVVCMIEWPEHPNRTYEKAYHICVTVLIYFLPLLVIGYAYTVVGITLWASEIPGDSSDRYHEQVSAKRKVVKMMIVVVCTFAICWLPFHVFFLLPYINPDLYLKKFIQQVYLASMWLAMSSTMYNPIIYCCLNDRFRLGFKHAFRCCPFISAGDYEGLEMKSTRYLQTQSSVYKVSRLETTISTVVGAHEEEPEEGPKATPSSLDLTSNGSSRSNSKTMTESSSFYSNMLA

T3: delta opioid receptor (DOR) (UniProt P41143)
T3 chain: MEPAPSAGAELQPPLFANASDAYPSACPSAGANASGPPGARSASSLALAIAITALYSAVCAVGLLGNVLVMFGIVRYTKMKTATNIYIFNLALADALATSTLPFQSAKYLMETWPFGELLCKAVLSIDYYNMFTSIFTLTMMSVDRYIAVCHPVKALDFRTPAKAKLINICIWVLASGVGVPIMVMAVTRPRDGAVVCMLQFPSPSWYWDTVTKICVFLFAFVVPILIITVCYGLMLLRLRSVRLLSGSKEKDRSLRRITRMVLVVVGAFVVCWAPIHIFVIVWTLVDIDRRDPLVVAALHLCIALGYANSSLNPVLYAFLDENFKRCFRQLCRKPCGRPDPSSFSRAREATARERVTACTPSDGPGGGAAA

B1: AKG180 (peptide)
chain: XAGFPLW
modifications: Dmt1, D-Ala2, NMeGly3; C-terminal NH-Bn(3',5'-(CF3)2)
B2: AKG182 (peptide)
chain: XAGFPLW
modifications: Dmt1, D-Ala2, NMeGly3, NMePhe4; C-terminal NH-Bn(3',5'-(CF3)2)
B3: AKG183 (peptide)
chain: XAGFPLW
modifications: Dmt1, D-NMeAla2, NMeGly3; C-terminal NH-Bn(3',5'-(CF3)2)
B4: AKG184 (peptide)
chain: XAGFPLW
modifications: Dmt1, D-NMeAla2, NMePhe4; C-terminal NH-Bn(3',5'-(CF3)2)
B5: AKG176 (peptide)
chain: Y[dA]G[NMeF][4Abz]PLW-{NH(3,5-(CF3)2-benzyl)}
B6: AKG124 (peptide)
chain: Y[dA]G[NMeF][Ahx]PLW-{NH(3,5-(CF3)2-benzyl)}
B7: AKG119 (peptide)
chain: Y[dA]G[NMeF][βAla]PLW-{NH(3,5-(CF3)2-benzyl)}
B8: AKG130 (peptide)
chain: Y[dA]G[Phe(4-F)]GPLW-{NH(3,5-(CF3)2-benzyl)}
B9: AKG178 (peptide)
chain: Y[dA]G[NMeF][4‑Ampa]PLW-{NH(3,5-(CF3)2-benzyl)}
modifications: reading uncertain
B10: AKG125 (peptide)
chain: Y[dA]G[NMeF][4Amb′]PLW-{NH(3,5-(CF3)2-benzyl)}
modifications: reading uncertain
B11: AKG131 (peptide)
chain: Y[dA]G[NMePhe(4-F)]GPLW-{NH(3,5-(CF3)2-benzyl)}
B12: AKG107 (peptide)
chain: XAGFMPLW
modifications: not fully specified; Dmt1, D-Ala2, NMePhe4 as described; C-terminal benzylamide
B13: AKG177 (peptide)
chain: Y[dA]G[NMeF][4‑Apac]PLW-{NH(3,5-(CF3)2-benzyl)}
modifications: reading uncertain
B14: AKG113 (peptide)
chain: Y[dA]G[NMeF]GPLW-{NH(3,5-(CF3)2-benzyl)}
B15: AKG106 (peptide)
chain: Y[dA]G[NMeF]MPLW-NHBn
B16: AKG112 (peptide)
chain: YAGFXPLW
modifications: D-Ala2, NMePhe4, Nle5; C-terminal NH-Bn(3',5'-(CF3)2)
B17: AKG123 (peptide)
chain: Y[dA]G[NMeF][GABA]PLW-{NH(3,5-(CF3)2-benzyl)}
B18: AKG174 (peptide)
chain: Y[dA]G[NMeF]KPLW
modifications: not fully specified (C-terminus)

Target: T1, human NK1 receptor
Test: competition

In order of rising Ki:
1. B3  2.49 nM
2. B4  2.84 nM
3. B1  2.86 nM
4. B2  5 nM

Target: T2, rat NK1 receptor
Test: competition

In order of rising Ki:
1. B15  9.9 nM
2. B12  13.6 nM
3. B7  29.4 nM
4. B10  29.9 nM
5. B6  44.3 nM
6. B14  60.5 nM
7. B9  72.3 nM
8. B8  72.5 nM
9. B13  74.3 nM
10. B5  77.8 nM
11. B11  89.1 nM

Target: T3, delta opioid receptor (DOR)
Test: competition

In order of rising Ki:
1. B17  3 nM
2. B8  5 nM
3. B11  17 nM
4. B16  22 nM
5. B6  31 nM
6. B7  46 nM
7. B14  46 nM
8. B13  70 nM
9. B5  82 nM
10. B9  100 nM
11. B10  117 nM

Target: T1, human NK1 receptor
Test: competition
Remark: another data set of the same source

In order of falling Ki:
1. B14  15 nM
2. B16  14 nM
3. B13  5.28 nM
4. B5  4.12 nM
5. B9  3.5 nM
6. B10  2.27 nM
7. B11  2.14 nM
8. B12  1.97 nM
9. B17  1.56 nM
10. B8  1.54 nM
11. B15  1.47 nM
12. B6  1.22 nM
13. B7  0.93 nM

Target: T2, rat NK1 receptor
Test: competition
Remark: another data set of the same source

With B18 the Ki was 7.31 nM.

target: mu opioid receptor (MOR) (UniProt P35372); test: competition
Sequence (P35372 whole entry): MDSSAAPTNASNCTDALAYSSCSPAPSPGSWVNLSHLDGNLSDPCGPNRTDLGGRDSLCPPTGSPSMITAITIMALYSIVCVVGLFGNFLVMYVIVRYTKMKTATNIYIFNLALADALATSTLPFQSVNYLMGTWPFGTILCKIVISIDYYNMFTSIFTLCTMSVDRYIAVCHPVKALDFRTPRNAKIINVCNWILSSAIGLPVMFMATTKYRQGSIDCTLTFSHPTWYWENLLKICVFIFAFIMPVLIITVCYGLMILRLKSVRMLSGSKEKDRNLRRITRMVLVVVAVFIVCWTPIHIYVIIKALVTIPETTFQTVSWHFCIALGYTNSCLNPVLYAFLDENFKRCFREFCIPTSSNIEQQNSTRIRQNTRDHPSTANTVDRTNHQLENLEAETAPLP

With B18 the Ki was 8 nM.

Target: T1, human NK1 receptor
Test: competition
Remark: another data set of the same source

B18 was tested, and the Ki was 3.18 nM.

target: mu opioid receptor (MOR) (UniProt P35372); test: competition; remark: another data set of the same source

In order of rising Ki:
1. B5  1 nM
2. B13  1 nM
3. B14  3 nM
4. B10  5 nM
5. B6  7 nM
6. B7  8 nM
7. B8  9 nM
8. B17  9 nM
9. B16  13 nM
10. B11  185 nM

Target: T2, rat NK1 receptor
Test: competition
Remark: another data set of the same source

In order of rising Ki:
1. B1  17.1 nM
2. B3  17.6 nM
3. B2  110 nM
4. B4  115 nM
